B1: INTS3 (parent)
chain: FHPIKETVVEEPVDITPYLDQLDE
B2: CCNC (parent)
chain: QSSHYLQWILDKQDLLKERQKDLK

Variants of: B1
Experiment: protein stability index of a GFP-peptide fusion (GPS, HEK-293T) (PSI 1-6); higher = more stable
Details: c terminus: a fixed tail appended
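Also: lentivirally expressed fusions sorted by FACS into six bins by GFP to DsRed ratio, PSI derived from sequencing read proportions per bin multiplied by bin number.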

| Variant | protein stability index |
| --- | --- |
| L22E | 3.68 |
| L22C | 3.82 |
| L22N | 3.85 |
| L22G | 3.41 |
| L22I | 3.83 |
| F1Y | 3.3 |
| F1T | 5.54 |
| F1L | 5.28 |
| Q21T | 3.19 |
| Q21A | 3.73 |
| Q21W | 2.26 |
| K5H | 4.67 |
| K5M | 4.24 |
| K5Q | 3.35 |
| K5S | 4.99 |
| K5F | 3.73 |
| V13E | 3.34 |
| V13S | 3.67 |
| V13Q | 3.25 |
| D20Q | 2.41 |
| D20G | 2.99 |
| D20K | 2.78 |
| D20N | 2.94 |
| D20P | 2 |
| D20H | 3 |

| Variant | protein stability index |
| --- | --- |
| D20I | 2.35 |
| H2C | 4.11 |
| H2V | 2.16 |
| H2P | 5.03 |
| H2Q | 4.7 |
| E10L | 2.69 |
| E10T | 2.56 |
| E10N | 2.59 |
| E10M | 2.16 |
| E6R | 1.98 |
| E6F | 1.53 |
| E6M | 2 |
| E6N | 2.67 |
| E6H | 2.01 |
| E6K | 2.34 |
| E6I | 1.57 |
| L19Y | 3.2 |
| L19D | 3.24 |
| P17N | 3.19 |
| P17Q | 3.52 |
| V9Y | 2.97 |
| V9Q | 3.77 |
| D14G | 2.42 |
| D14I | 2.9 |
| D14V | 2.73 |

| Variant | protein stability index |
| --- | --- |
| D14H | 3.11 |
| D14L | 2.91 |
| D14F | 1.93 |
| I15F | 2.4 |
| I15N | 2.32 |
| I15K | 3.86 |
| I15S | 2.92 |
| I15P | 3.53 |
| I15M | 2.86 |
| E11N | 2.98 |
| E11I | 1.77 |
| E11W | 2.11 |
| E11T | 2.54 |
| T16R | 2.84 |
| T16P | 3 |
| T16M | 3.73 |
| T16G | 3.44 |
| T16Y | 2.77 |
| T16E | 3.75 |
| E24S | 2.9 |
| E24K | 2.42 |
| E24C | 2.77 |
| I4P | 2.96 |
| I4E | 4.06 |
| I4G | 4.25 |

| Variant | protein stability index |
| --- | --- |
| I4H | 4.1 |
| I4V | 3.82 |
| T7G | 4.18 |
| T7I | 3.06 |
| T7V | 3.12 |
| P12E | 3.52 |
| P12S | 3.31 |
| P3L | 3.14 |
| P3D | 4.79 |
| P3Q | 3.78 |
| P3A | 3.82 |
| P3Y | 2.75 |
| P3T | 3.43 |
| V8F | 2.73 |
| V8P | 3.73 |
| V8R | 3.03 |
| V8G | 3.91 |
| D23Q | 3.02 |
| D23T | 3.08 |
| D23E | 3.29 |
| Y18W | 3.11 |
| Y18G | 3.69 |
| Y18F | 3.79 |
| Y18M | 3.58 |

Variants of: B2
Experiment: as above
Details: c terminus: a fixed tail appended

| Variant | protein stability index |
| --- | --- |
| R19M | 2.12 |
| R19C | 2.42 |
| R19F | 2.14 |
| R19D | 3.93 |
| R19S | 2.94 |
| R19Y | 2.72 |
| R19N | 3.72 |
| R19L | 2.06 |
| R19V | 2.19 |
| R19E | 3.81 |
| K21A | 2.78 |
| K21I | 3.01 |
| K21T | 3.28 |
| K21E | 2.99 |
| K21L | 2.43 |
| K21R | 4.05 |
| K21W | 2.3 |
| K21N | 2.57 |
| K21M | 2.9 |
| H4Y | 3.21 |
| H4T | 2.79 |
| H4I | 2.09 |
| H4N | 3.27 |
| H4R | 2.39 |

| Variant | protein stability index |
| --- | --- |
| H4L | 2.34 |
| H4C | 2.22 |
| H4P | 2.72 |
| H4S | 3.2 |
| H4A | 3 |
| H4G | 3.03 |
| Q20G | 2.98 |
| Q20I | 1.66 |
| Q20S | 3.38 |
| Q20F | 2.67 |
| Q20R | 3.5 |
| Q20K | 3.07 |
| Q20A | 3.12 |
| Q20W | 1.44 |
| Q20T | 3.2 |
| Q7Y | 2.85 |
| Q7T | 3.66 |
| Q7A | 2.39 |
| Q7F | 1.57 |
| Q7K | 2.84 |
| Q7M | 3.79 |
| Q7L | 2.22 |
| Q7N | 2.84 |
| Q7R | 2.37 |

| Variant | protein stability index |
| --- | --- |
| Q7I | 1.94 |
| Q7E | 2.73 |
| D14T | 3.36 |
| D14C | 2.79 |
| D14F | 2.22 |
| D14I | 2.55 |
| D14G | 3.8 |
| D14Y | 2.61 |
| D14K | 3.65 |
| K24S | 2.81 |
| K24L | 3.19 |
| K24T | 2.96 |
| K24W | 1.78 |
| K24D | 4.08 |
| K24E | 3.78 |
| K24A | 2.66 |
| K24Y | 2.17 |
| K24P | 2.4 |
| K24N | 3.46 |
| K24M | 2.57 |
| K24Q | 2.77 |
| K24G | 3.1 |
| E18S | 2.54 |
| E18Q | 2.29 |

| Variant | protein stability index |
| --- | --- |
| E18L | 2.33 |
| E18W | 1.8 |
| E18A | 3.67 |
| E18I | 2.84 |
| E18K | 2.89 |
| E18C | 2.28 |
| E18P | 2.56 |
| E18R | 2.63 |
| S3N | 3.17 |
| S3R | 3.04 |
| S3M | 2.38 |
| S3F | 1.94 |
| S3H | 2.95 |
| S3A | 3.9 |
| S3C | 3.02 |
| S3Q | 2.68 |
| S3P | 3.22 |
| S3L | 1.92 |
| S3W | 2.32 |
| L6D | 4.14 |
| L6R | 3.54 |
| L6G | 4.11 |
| L6N | 4.03 |
| L6K | 3.92 |

| Variant | protein stability index |
| --- | --- |
| L6H | 3.69 |
| L6M | 3.21 |
| L6Q | 3.72 |
| L6S | 3.99 |
| L6T | 3.2 |
| L6E | 5.2 |
| L6C | 3.71 |
| L6I | 2.83 |
| Q13D | 3.82 |
| Q13M | 2 |
| Q13W | 2.36 |
| Q13E | 2.71 |
| Q13P | 3.36 |
| Q13Y | 2.42 |
| Q13R | 2.6 |
| Q13G | 2.94 |
| Q13F | 2.34 |
| Q13H | 2.5 |
| L16N | 4 |
| L16H | 4 |
| L16A | 3.74 |
| L16S | 4.05 |
| L16Y | 2.57 |
| L16W | 2.92 |

| Variant | protein stability index |
| --- | --- |
| L16F | 3.23 |
| L16P | 4.26 |
| L16E | 4 |
| L16G | 3.43 |
| L16K | 3.54 |
| Q1E | 2.72 |
| Q1L | 2.78 |
| Q1N | 3.13 |
| Q1Y | 2.53 |
| Q1P | 3.77 |
| Q1K | 2.5 |
| W8P | 4.29 |
| W8N | 4.46 |
| W8C | 3.89 |
| W8M | 4.16 |
| W8L | 3.41 |
| W8Y | 4.5 |
| W8S | 4.09 |
| W8E | 4.35 |
| W8G | 3.94 |
| W8K | 3.87 |
| W8H | 4.03 |
| I9E | 4.87 |
| I9T | 3.74 |

| Variant | protein stability index |
| --- | --- |
| I9H | 3.64 |
| I9P | 4.6 |
| I9C | 3.9 |
| I9Y | 3.32 |
| I9M | 3.53 |
| I9L | 3.36 |
| I9F | 3.98 |
| I9K | 4.09 |
| K17C | 2.71 |
| K17M | 3.14 |
| K17A | 3.21 |
| K17L | 2.68 |
| K17V | 2.82 |
| K17H | 2.93 |
| K17R | 2.33 |
| K12Q | 3.25 |
| K12P | 3.29 |
| K12N | 2.79 |
| K12E | 3.66 |
| K12C | 2.46 |
| K12G | 2.41 |
| K12A | 2.73 |
| K12I | 1.71 |
| K12M | 1.92 |

| Variant | protein stability index |
| --- | --- |
| L23A | 3.41 |
| L23N | 3.18 |
| L23H | 3.31 |
| L23G | 4.43 |
| L23Q | 3.83 |
| L23F | 2.82 |
| D11R | 2.1 |
| D11Q | 3.39 |
| D11T | 2.58 |
| D11W | 2.38 |
| D11H | 2.86 |
| D11N | 2.83 |
| D11C | 2.96 |
| D11L | 2.72 |
| L15I | 3.11 |
| L15W | 3.37 |
| L15D | 3.47 |
| L15Y | 2.8 |
| L15F | 2.54 |
| L15T | 3.72 |
| L15G | 3.44 |
| L15H | 3.72 |
| L15P | 3.93 |
| L15Q | 3.94 |

| Variant | protein stability index |
| --- | --- |
| L10K | 3.6 |
| L10E | 4.29 |
| L10C | 3.86 |
| L10M | 3.41 |
| L10D | 4.49 |
| L10S | 4 |
| L10Y | 3.42 |
| L10R | 3.61 |
| L10F | 3.4 |
| D22S | 2.59 |
| D22W | 2.57 |
| D22A | 2.61 |
| D22K | 2.18 |
| D22Y | 2.82 |
| D22C | 2.54 |
| D22G | 2.6 |
| D22F | 2.67 |
| D22L | 2.08 |
| D22Q | 2.1 |
| D22M | 2.55 |
| S2L | 1.95 |
| S2E | 3.3 |
| S2G | 2.78 |
| S2F | 1.1 |

| Variant | protein stability index |
| --- | --- |
| S2Y | 1.96 |
| S2T | 2.84 |
| S2P | 3.01 |
| S2D | 3.46 |
| S2A | 2.14 |
| S2Q | 2.9 |
| S2K | 2.46 |
| S2N | 3.15 |
| Y5Q | 4.29 |
| Y5M | 2.83 |
| Y5V | 3.28 |
| Y5F | 2.77 |
| Y5D | 4.45 |
| Y5P | 4.47 |
| Y5T | 3.7 |
| Y5K | 3.43 |
| Y5C | 3.61 |
| Y5R | 3.38 |
| Y5E | 3.21 |

— the supplement of paper PMC10567573
